Measured values reported in article doi:10.1101/2021.08.19.456998 (2021).
Where no end group is shown, it is not given here. The star is where a group is joined. Biotin = O=C1N[C@H]2[C@H](CS[C@H]2CCCCC(=O)*)N1

Key:
[1] = molecular target: T1, biotin-OSR (uncleaved human OSR1 CCT domain, residues 423-527, biotinylated on the AviTag) (human, biotin on the lysine of the AviTag (…)); test: multicycle kinetics
[2] = molecular target: T2, biotin-SPAK (uncleaved human SPAK CCT domain, residues 441-545, biotinylated on the AviTag) (human, biotin on the lysine of the AviTag (…)); test: multicycle kinetics
[3] = molecular target: T1, biotin-OSR (uncleaved human OSR1 CCT …); test: waveRAPID
[4] = molecular target: T2, biotin-SPAK (uncleaved human SPAK CCT …); test: waveRAPID
[5] = molecular target: T3, cleaved SPAK (human SPAK CCT domain, residues 441-545, tags removed with TEV protease) (human); test: waveRAPID, heterogeneous ligand model, second site
[6] = molecular target: T4, cleaved OSR1 (human OSR1 CCT domain, residues 423-527, tags removed with TEV protease) (human); test: multicycle kinetics, 1:1 model
[7] = molecular target: T4, cleaved OSR1 (human OSR1 CCT domain, …); test: waveRAPID, 1:1 model
[8] = molecular target: T3, cleaved SPAK (human SPAK CCT domain, …); test: waveRAPID, heterogeneous ligand model, second site; remark: listed apart in the source
[9] = molecular target: T3, cleaved SPAK (human SPAK CCT domain, …); test: waveRAPID, heterogeneous ligand model, site 1

T4 sequence (chain, as listed by the source): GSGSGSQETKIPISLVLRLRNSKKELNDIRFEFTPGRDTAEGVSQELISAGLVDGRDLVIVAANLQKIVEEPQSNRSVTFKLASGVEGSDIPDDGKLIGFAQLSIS
T1 sequence (chain, as listed by the source): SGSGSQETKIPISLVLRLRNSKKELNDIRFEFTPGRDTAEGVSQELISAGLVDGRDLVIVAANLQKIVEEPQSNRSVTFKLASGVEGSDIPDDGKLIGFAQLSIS

koff [1] [s⁻¹]	koff [2] [s⁻¹]	koff [3] [s⁻¹]	koff [4] [s⁻¹]	Kd [5] [nM]	koff [6] [s⁻¹]	koff [7] [s⁻¹]	koff [8] [s⁻¹]	koff [9] [s⁻¹]	Binder
0.68	0.327	0.56	0.614	–	–	–	–	–	SEEGKPQLVGRFQVTSSK [18-mer RFQV peptide derived from WNK4 (SEEGKPQLVGRFQVTSSK), unbiotinylated]
–	–	–	–	4.25	1.13	0.662	6.98e-05	0.584	{Biotin-C6}-SEEGKPQLVGRFQVTSSK [Biotin-C6-SEEGKPQLVGRFQVTSSK (N-terminally biotinylated 18-mer RFQV peptide derived from WNK4)]
